For this assay, the target named is HLA-DR2(15) (human). In words: competition assay against a standard peptide on purified HLA class II.

B1: B. lentus subtilisin epitope peptide, amino acids 160-174 (peptide, UniProt P29600 160-174, looked up)
peptide: SYPARYANAMAVGAT
notes: Synthetic 15-mer; also called peptide position #54
As to B1, the IC50 was 127 nM.

A word on the IC50: it is the concentration needed to halve the response being measured. Low readings indicate inhibition by little substance, high ones a need for much substance.

(Values after patent US20080220450A1 (DANISCO US INC GENENCOR DIVISION, published 2008).)
